Assay results from paper PMC10786891, “Massively parallel profiling of RNA-targeting CRISPR-Cas13d”.
Where a chain is given by its changes, count along the chain named. In names and notes the source's numbering stands.

T1: EsCas13d, nuclease-dead (Eubacterium siraeum, UniProt B0MS50, R295A;H300A;R849A;H854A)
T1 sequence: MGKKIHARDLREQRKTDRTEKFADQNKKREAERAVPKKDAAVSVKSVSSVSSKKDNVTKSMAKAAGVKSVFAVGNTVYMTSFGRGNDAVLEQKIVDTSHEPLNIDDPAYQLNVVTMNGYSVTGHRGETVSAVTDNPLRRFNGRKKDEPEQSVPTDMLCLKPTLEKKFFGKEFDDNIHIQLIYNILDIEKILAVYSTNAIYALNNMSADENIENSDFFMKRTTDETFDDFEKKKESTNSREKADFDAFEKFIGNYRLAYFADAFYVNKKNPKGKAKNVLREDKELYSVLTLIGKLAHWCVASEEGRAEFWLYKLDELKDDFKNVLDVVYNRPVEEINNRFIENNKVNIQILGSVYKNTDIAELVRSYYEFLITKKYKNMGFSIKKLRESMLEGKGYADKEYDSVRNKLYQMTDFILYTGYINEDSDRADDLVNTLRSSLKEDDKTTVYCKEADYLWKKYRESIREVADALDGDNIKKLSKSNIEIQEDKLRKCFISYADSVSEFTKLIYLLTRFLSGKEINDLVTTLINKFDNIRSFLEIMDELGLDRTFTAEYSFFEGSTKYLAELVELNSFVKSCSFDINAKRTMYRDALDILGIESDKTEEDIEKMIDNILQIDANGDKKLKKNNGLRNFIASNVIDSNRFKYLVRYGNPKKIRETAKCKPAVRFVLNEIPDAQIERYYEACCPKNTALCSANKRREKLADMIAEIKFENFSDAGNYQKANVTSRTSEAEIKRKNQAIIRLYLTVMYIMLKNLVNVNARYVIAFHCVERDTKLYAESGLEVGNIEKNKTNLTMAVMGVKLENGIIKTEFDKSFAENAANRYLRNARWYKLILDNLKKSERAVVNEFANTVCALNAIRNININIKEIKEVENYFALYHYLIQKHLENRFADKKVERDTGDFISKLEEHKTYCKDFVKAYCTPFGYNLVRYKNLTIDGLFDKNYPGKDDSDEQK

B1: target 2 MT 5'PFS CUG 3'PFS AUU (mixed)
RNA 1: CACCCGUGCAAAAUUGCAGGGGUCUAAAACCUUCUCCAAAUUGUUUCAUCCU
RNA 2: GGGAAUGGAUCCACAUCUACGAAUUCCUGAGGAUGAAACAAUUUGGAGAAGAUUAGAUCGGAAGAGCACACGU
B2: target 2 MT 5'PFS GAC 3'PFS ACG (mixed)
RNA 1: B1 RNA 1
RNA 2: B1 RNA 2 with C27G, U28A, G29C, U53C, U54G
B3: target 2 MT 5'PFS GUC 3'PFS UGA (mixed)
RNA 1: B1 RNA 1
RNA 2: B1 RNA 2 with C27G, G29C, A52U, U53G, U54A
B4: target 2 MT 5'PFS AAC 3'PFS UAG (mixed)
RNA 1: B1 RNA 1
RNA 2: B1 RNA 2 with C27A, U28A, G29C, A52U, U53A, U54G
B5: target 2 MT 5'PFS AAC 3'PFS ACC (mixed)
RNA 1: B1 RNA 1
RNA 2: B1 RNA 2 with C27A, U28A, G29C, U53C, U54C
B6: target 2 MT 5'PFS AAC 3'PFS ACU (mixed)
RNA 1: B1 RNA 1
RNA 2: B1 RNA 2 with C27A, U28A, G29C, U53C
B7: target 2 MT 5'PFS AUU 3'PFS CAA (mixed)
RNA 1: B1 RNA 1
RNA 2: B1 RNA 2 with C27A, G29U, A52C, U53A, U54A
B8: target 2 MT 5'PFS AAC 3'PFS UAC (mixed)
RNA 1: B1 RNA 1
RNA 2: B1 RNA 2 with C27A, U28A, G29C, A52U, U53A, U54C
B9: target 2 MT 5'PFS AAC 3'PFS UAU (mixed)
RNA 1: B1 RNA 1
RNA 2: B1 RNA 2 with C27A, U28A, G29C, A52U, U53A
B10: target 2 MT 5'PFS AAC 3'PFS ACG (mixed)
RNA 1: B1 RNA 1
RNA 2: B1 RNA 2 with C27A, U28A, G29C, U53C, U54G
B11: target 2 MT 5'PFS CGA 3'PFS UUC (mixed)
RNA 1: B1 RNA 1
RNA 2: B1 RNA 2 with U28G, G29A, A52U, U54C
B12: target 2 MT 5'PFS GAC 3'PFS ACC (mixed)
RNA 1: B1 RNA 1
RNA 2: B1 RNA 2 with C27G, U28A, G29C, U53C, U54C
B13: target 2 MT 5'PFS GGA 3'PFS CCG (mixed)
RNA 1: B1 RNA 1
RNA 2: B1 RNA 2 with C27G, U28G, G29A, A52C, U53C, U54G
B14: target 2 MT 5'PFS GGU 3'PFS CGA (mixed)
RNA 1: B1 RNA 1
RNA 2: B1 RNA 2 with C27G, U28G, G29U, A52C, U53G, U54A
B15: target 2 MT 5'PFS CAA 3'PFS UCC (mixed)
RNA 1: B1 RNA 1
RNA 2: B1 RNA 2 with U28A, G29A, A52U, U53C, U54C
B16: target 2 MT 5'PFS AAC 3'PFS UAA (mixed)
RNA 1: B1 RNA 1
RNA 2: B1 RNA 2 with C27A, U28A, G29C, A52U, U53A, U54A
B17: target 2 MT 5'PFS GGC 3'PFS UUC (mixed)
RNA 1: B1 RNA 1
RNA 2: B1 RNA 2 with C27G, U28G, G29C, A52U, U54C
B18: target 2 MT 5'PFS ACU 3'PFS CUC (mixed)
RNA 1: B1 RNA 1
RNA 2: B1 RNA 2 with C27A, U28C, G29U, A52C, U54C
B19: target 2 MT 5'PFS CUA 3'PFS UAG (mixed)
RNA 1: B1 RNA 1
RNA 2: B1 RNA 2 with G29A, A52U, U53A, U54G
B20: target 2 MT 5'PFS GAC 3'PFS ACA (mixed)
RNA 1: B1 RNA 1
RNA 2: B1 RNA 2 with C27G, U28A, G29C, U53C, U54A
B21: target 2 MT 5'PFS UAA 3'PFS UGC (mixed)
RNA 1: B1 RNA 1
RNA 2: B1 RNA 2 with C27U, U28A, G29A, A52U, U53G, U54C
B22: target 2 MT 5'PFS ACU 3'PFS CUU (mixed)
RNA 1: B1 RNA 1
RNA 2: B1 RNA 2 with C27A, U28C, G29U, A52C
B23: target 2 MT 5'PFS UAG 3'PFS CGC (mixed)
RNA 1: B1 RNA 1
RNA 2: B1 RNA 2 with C27U, U28A, A52C, U53G, U54C
B24: target 2 MT 5'PFS GGC 3'PFS UUA (mixed)
RNA 1: B1 RNA 1
RNA 2: B1 RNA 2 with C27G, U28G, G29C, A52U, U54A
B25: target 2 MT 5'PFS GGU 3'PFS CGG (mixed)
RNA 1: B1 RNA 1
RNA 2: B1 RNA 2 with C27G, U28G, G29U, A52C, U53G, U54G
B26: target 2 MT 5'PFS GAC 3'PFS ACU (mixed)
RNA 1: B1 RNA 1
RNA 2: B1 RNA 2 with C27G, U28A, G29C, U53C
B27: target 2 MT 5'PFS GGU 3'PFS CGU (mixed)
RNA 1: B1 RNA 1
RNA 2: B1 RNA 2 with C27G, U28G, G29U, A52C, U53G
B28: target 2 MT 5'PFS UAA 3'PFS UGU (mixed)
RNA 1: B1 RNA 1
RNA 2: B1 RNA 2 with C27U, U28A, G29A, A52U, U53G
B29: target 2 MT 5'PFS GUA 3'PFS UGC (mixed)
RNA 1: B1 RNA 1
RNA 2: B1 RNA 2 with C27G, G29A, A52U, U53G, U54C
B30: target 2 MT 5'PFS GCC 3'PFS UCA (mixed)
RNA 1: B1 RNA 1
RNA 2: B1 RNA 2 with C27G, U28C, G29C, A52U, U53C, U54A
B31: target 2 MT 5'PFS GGU 3'PFS CGC (mixed)
RNA 1: B1 RNA 1
RNA 2: B1 RNA 2 with C27G, U28G, G29U, A52C, U53G, U54C
B32: target 2 MT 5'PFS ACA 3'PFS AAU (mixed)
RNA 1: B1 RNA 1
RNA 2: B1 RNA 2 with C27A, U28C, G29A, U53A
B33: target 2 MT 5'PFS GGA 3'PFS CCA (mixed)
RNA 1: B1 RNA 1
RNA 2: B1 RNA 2 with C27G, U28G, G29A, A52C, U53C, U54A
B34: target 1 G5U,G17A (mixed)
RNA 1: CACCCGUGCAAAAAUGCAGGGGUCUAAAACUGAGCGGAUAACCUCUCUAUGG
RNA 2: GGGAAUGGAUCCACAUCUACGAAUUCGUACCAUAAAGAGGUUAUCCUCUCACCGAGAUCGGAAGAGCACACGU
B35: target 1 U8G,A14G (mixed)
RNA 1: B34 RNA 1
RNA 2: B34 RNA 2 with A35G, A38G, U44G, U47G
B36: target 1 insG 3' of 4,insG 3' of 1 (mixed)
RNA 1: B34 RNA 1
RNA 2: GGGAAUGGAUCCACAUCUACGAAUUCGUACCAUAGAGAGGUUAUCCGCGUCAGCCGAGAUCGGAAGAGCACACGU
B37: target 1 insG 3' of 4,insC 3' of 1 (mixed)
RNA 1: B34 RNA 1
RNA 2: B36 RNA 2 with G53C

Each binder was assayed against T1, EsCas13d, nuclease-dead (assay: crRNA (strand 1, pre-loaded); Mg2+; 40 mM Tris-HCl pH 7.5, 150 mM NaCl, 6 mM MgCl2, 1 mM DTT, 0.1% Tween-20, 0.2 mg/ml BSA; 25 C; 10 min per concentration, then washed). Settings: tags: His6-TwinStrep-SUMO cleaved; N-terminal SNAP kept (SNAP-Surface 488); label: 3' end held by stalled T7 RNA polymerase.

Point of comparison: B31, Kd 15.1 ± 1.4 nM. Against it:
- B1 — 5.9-fold lower, 2.57 ± 0.22 nM
- B2 — within error, 13.6 ± 2.1 nM
- B3 — within error, 17.4 ± 2.6 nM
- B4 — 2.2-fold lower, 6.8 ± 1.6 nM
- B5 — 2.2-fold lower, 7 ± 2.4 nM
- B6 — 1.7-fold lower, 9.1 ± 3.1 nM
- B7 — 3-fold lower, 5 ± 0.6 nM
- B8 — 2.9-fold lower, 5.2 ± 1.2 nM
- B9 — 2.8-fold lower, 5.4 ± 0.8 nM
- B10 — 2.5-fold lower, 6.1 ± 1.6 nM
- B11 — within 1.5-fold, 11.5 ± 1.9 nM
- B12 — within error, 14.7 ± 2.3 nM
- B13 — within 1.5-fold, 12.3 ± 1.2 nM
- B14 — within error, 15.4 ± 2.1 nM
- B15 — 2.1-fold lower, 7.3 ± 0.6 nM
- B16 — 2-fold lower, 7.4 ± 2.6 nM
- B17 — within 1.5-fold, 18.8 ± 2.3 nM
- B18 — 2.8-fold lower, 5.4 ± 1.4 nM
- B19 — 7.9-fold lower, 1.9 ± 0.4 nM
- B20 — within error, 12.9 ± 2.6 nM
- B21 — 2.7-fold lower, 5.6 ± 1.2 nM
- B22 — 2.4-fold lower, 6.2 ± 0.6 nM
- B23 — 6.4-fold lower, 2.36 ± 0.26 nM
- B24 — within error, 15.2 ± 1.8 nM
- B25 — within error, 15.6 ± 1.4 nM
- B26 — 2-fold higher, 30 ± 10 nM
- B27 — within 1.5-fold, 22.3 ± 2.6 nM
- B28 — 1.6-fold lower, 9.5 ± 1.5 nM
- B29 — within 1.5-fold, 11.4 ± 1.5 nM
- B30 — within error, 17 ± 4 nM
- B32 — 2.6-fold lower, 5.7 ± 1.3 nM
- B33 — 1.8-fold higher, 27 ± 5 nM
- B34 — 6-fold higher, 91 ± 15 nM
- B35 — 1.5-fold higher, 22.9 ± 1.2 nM
- B36 — 2.5-fold lower, 6 ± 0.4 nM
- B37 — within 1.5-fold, 12.6 ± 1 nM
